# Target: dtx_drome dx (UniProt Q23985)
# Sequence (Q23985 whole entry): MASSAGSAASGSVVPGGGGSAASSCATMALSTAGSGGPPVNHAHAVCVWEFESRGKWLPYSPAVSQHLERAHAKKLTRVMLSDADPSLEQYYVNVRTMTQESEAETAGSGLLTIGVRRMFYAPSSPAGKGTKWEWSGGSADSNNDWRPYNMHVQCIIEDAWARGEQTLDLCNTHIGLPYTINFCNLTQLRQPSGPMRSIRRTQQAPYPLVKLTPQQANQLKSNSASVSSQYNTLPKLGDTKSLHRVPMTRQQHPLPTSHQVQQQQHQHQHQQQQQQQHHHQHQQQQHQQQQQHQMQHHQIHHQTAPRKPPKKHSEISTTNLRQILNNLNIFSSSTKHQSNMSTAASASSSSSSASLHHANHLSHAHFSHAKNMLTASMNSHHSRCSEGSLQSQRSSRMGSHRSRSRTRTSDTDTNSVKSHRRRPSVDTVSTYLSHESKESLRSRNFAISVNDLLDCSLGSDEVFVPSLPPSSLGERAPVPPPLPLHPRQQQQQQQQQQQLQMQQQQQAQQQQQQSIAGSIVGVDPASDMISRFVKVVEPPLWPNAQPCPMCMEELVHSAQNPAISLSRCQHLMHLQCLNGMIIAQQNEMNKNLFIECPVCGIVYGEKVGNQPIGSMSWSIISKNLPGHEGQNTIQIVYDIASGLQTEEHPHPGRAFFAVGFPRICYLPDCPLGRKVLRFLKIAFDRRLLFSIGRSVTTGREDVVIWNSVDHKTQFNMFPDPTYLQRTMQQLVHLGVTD
substance,measurement,value
"Neurogenic locus Notch protein (Drosophila melanogaster (Fruit fly)), P07207 R2027A",effect of a mutation on the interaction,disrupting interaction strength
